Consider 104 substances from patent US20250011363A1, “OPTIMIZED SHORTENED PEPTIDE THAT BINDS TO ACETYLCHOLINE RECEPTOR, AND USE THEREOF” (SKINMED CO., LTD., priority 2021, published 2025).

The assay deals with acetylcholine receptor (Homo sapiens, UniProt P02708). The experiment in a line: SPR binding affinity (RU) of optimized 5mer/6mer/7mer peptides, Examples 6-7. The following applies: SPR, Resonance Units; 5mer Bottom sequence (bottom combinations); peptides tested at 10 μM. As for the experimental part: Based on the frequencies of occurrence of the top 7 amino acids from Table 7 in Example 5, 600 peptides comprising these amino acids (top combinations) and those comprising the 13 less frequently occurring amino acids (bottom combinations) were synthesized for each series of 5mer, 6mer-1, and 6mer-2. The binding affinity of each sequence for the acetylcholine receptor was measured using Surface Plasmon Resonance (SPR) analysis method. The peptides were tested at a concentration of 10 μM. Additionally, the average binding affinities of the top and bottom combinations in each series are depicted in FIGS. 5-7.
acetylcholine receptor, sequence (P02708 21-457): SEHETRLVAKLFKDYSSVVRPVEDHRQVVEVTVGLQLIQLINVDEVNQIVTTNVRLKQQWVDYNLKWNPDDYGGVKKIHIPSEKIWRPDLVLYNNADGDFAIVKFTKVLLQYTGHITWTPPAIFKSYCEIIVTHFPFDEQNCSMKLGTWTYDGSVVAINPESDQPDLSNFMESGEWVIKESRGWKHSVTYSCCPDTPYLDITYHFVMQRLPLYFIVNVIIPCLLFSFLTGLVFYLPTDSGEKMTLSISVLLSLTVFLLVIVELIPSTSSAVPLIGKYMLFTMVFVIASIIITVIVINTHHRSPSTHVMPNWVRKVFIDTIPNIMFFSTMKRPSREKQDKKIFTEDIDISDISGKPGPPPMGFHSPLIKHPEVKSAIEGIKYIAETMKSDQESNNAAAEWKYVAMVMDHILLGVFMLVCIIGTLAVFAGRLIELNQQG
Representative peptides identified in Example 6, two in each library, including 5mers (73, 311) and 6mers-1 (43, 210) and 6mers-2 (136, 233), were compared with the pre-optimized 6mer, 5mer-ND, and Synake.

On to 5mer-608 (RDSER), for which the Binding affinity is given as 20 Ru.
For 5mer-609 (RKTMK), the Binding affinity was 32 Ru.
With 5mer-610 (KCDDK), the Binding affinity is reported as 16 Ru.
With 5mer-611 (KDHIR) the figure was 33 Ru; with 5mer-612 (KCTDK), 23 Ru; with 5mer-613 (RAEFR), 20 Ru.
Consider 5mer-614 (RNTWK), for which the Binding affinity stood at 29 Ru.
Take 5mer-615 (KCCNR): the Binding affinity was 20 Ru.
5mer-616 (KFCPR): the Binding affinity worked out at 15 Ru.
With 5mer-617 (RYCAK), the Binding affinity amounted to 28 Ru.
Turning to 5mer-618 (RMSWK), the Binding affinity is 19 Ru.
Regarding 5mer-619 (KCSFK), the Binding affinity is recorded as 19 Ru.
With 5mer-620 (RCMHK), the Binding affinity came out at 23 Ru.
In the case of 5mer-621 (KKSMK) it was 13 Ru; in that of 5mer-622 (RKPKR), 22 Ru; in that of 5mer-623 (KNTGR), 19 Ru.
On to 5mer-624 (KEHER), for which the Binding affinity is on record as 22 Ru.
For 5mer-625 (KMCDR), the Binding affinity amounted to 33 Ru.
With 5mer-626 (KICMR) the figure was 12 Ru; with 5mer-627 (KMSPK), 30 Ru.
Consider 5mer-628 (RYMDR), for which the Binding affinity is recorded as 19 Ru.
5mer-629 (RPTNK): the Binding affinity stood at 32 Ru.
Consider 5mer-630 (RITFR), for which the Binding affinity is given as 30 Ru.
For the substance 5mer-631 (RPANR), the Binding affinity turned out to be 17 Ru.
In the case of 5mer-632 (RFSHR) it was 33 Ru; in that of 5mer-633 (RAAKR), 20 Ru.
For the substance 5mer-634 (RMMMR), the Binding affinity stood at 26 Ru.
For 5mer-635 (RMNGR), the Binding affinity is 21 Ru.
Take 5mer-636 (KDKGR): the Binding affinity amounted to 11 Ru.
In the case of 5mer-637 (KCDHK) it was 28 Ru; in that of 5mer-638 (KHCIR), 33 Ru.
As for 5mer-639 (KETWK), the Binding affinity is given as 13 Ru.
With 5mer-640 (KNPHK) the figure was 15 Ru.
With 5mer-641 (RITWK), the Binding affinity amounted to 22 Ru.
In the case of 5mer-642 (RAWDR) it was 22 Ru.
With 5mer-643 (KHDGR) the figure was 28 Ru; with 5mer-644 (RMKWK), 24 Ru; with 5mer-645 (RHKDK), 20 Ru.
Regarding 5mer-646 (KDTKR), the Binding affinity was found to be 16 Ru.
With 5mer-647 (KHTVK), the Binding affinity turned out to be 29 Ru.
With 5mer-648 (KNKKR), the Binding affinity was 15 Ru.
Take 5mer-649 (RYSFK): the Binding affinity is 20 Ru.
With 5mer-650 (RPEDK), the Binding affinity is 22 Ru.
For 5mer-651 (RFTVR), the Binding affinity was determined as 11 Ru.
With 5mer-652 (RCAAR) the figure was 23 Ru; with 5mer-653 (KTTWK), 16 Ru.
In the case of 5mer-654 (KEWNR) it was 27 Ru.
5mer-655 (RKCIR): the Binding affinity is recorded as 15 Ru.
In the case of 5mer-656 (KATGR) it was 13 Ru; in that of 5mer-657 (KDNDR), 22 Ru; in that of 5mer-658 (KKWGR), 31 Ru.
Take 5mer-659 (KIHEK): the Binding affinity stood at 22 Ru.
With 5mer-660 (KFDVK), the Binding affinity turned out to be 11 Ru.
With 5mer-661 (RCNMK) the figure was 30 Ru; with 5mer-662 (KIEEK), 28 Ru; with 5mer-663 (RATPR), 31 Ru.
As for 5mer-664 (KPTWR), the Binding affinity came to 17 Ru.
With 5mer-665 (KTWEK), the Binding affinity was found to be 26 Ru.
With 5mer-666 (RHDWR) the figure was 18 Ru; with 5mer-667 (RDCHR), 16 Ru; with 5mer-668 (RPHAK), 27 Ru.
With 5mer-669 (RNPER) the figure was 24 Ru; with 5mer-670 (KPCVK), 23 Ru.
On to 5mer-671 (KMNAK), for which the Binding affinity turned out to be 21 Ru.
Turning to 5mer-672 (KHAPK), the Binding affinity is 12 Ru.
In the case of 5mer-673 (RISPR), the Binding affinity was found to be 14 Ru.
5mer-674 (KETHR): the Binding affinity came out at 22 Ru.
In the case of 5mer-675 (RKPGR) it was 31 Ru; in that of 5mer-676 (RTMFR), 18 Ru; in that of 5mer-677 (RCEMR), 15 Ru.
With 5mer-678 (KYMGR) the figure was 23 Ru; with 5mer-679 (KKTVK), 21 Ru; with 5mer-680 (RFTER), 21 Ru.
With 5mer-681 (KDTMR), the Binding affinity came out at 18 Ru.
In the case of 5mer-682 (KPNVK) it was 31 Ru; in that of 5mer-683 (KYPDK), 32 Ru; in that of 5mer-684 (KCAER), 27 Ru.
In the case of 5mer-685 (RNDIK) it was 21 Ru.
For 5mer-686 (RFNIR), the Binding affinity stood at 18 Ru.
As to 5mer-687 (RMEIR), the Binding affinity is on record as 22 Ru.
For 5mer-688 (RPHFK), the Binding affinity was determined as 31 Ru.
Consider 5mer-689 (RFSDK), for which the Binding affinity was 20 Ru.
Consider 5mer-690 (RAEIK), for which the Binding affinity turned out to be 12 Ru.
Consider 5mer-691 (KEWEK), for which the Binding affinity was 16 Ru.
For 5mer-692 (RDHWK), the Binding affinity amounted to 15 Ru.
On to 5mer-693 (RPSKK), for which the Binding affinity is listed as 17 Ru.
Turning to 5mer-694 (KNNAR), the Binding affinity is 24 Ru.
As to 5mer-695 (KKPDR), the Binding affinity was determined as 26 Ru.
As for 5mer-696 (RCEHR), the Binding affinity is given as 11 Ru.
Regarding 5mer-697 (KASKK), the Binding affinity was 25 Ru.
On to 5mer-698 (KFDWK), for which the Binding affinity was 12 Ru.
As to 5mer-699 (KKNER), the Binding affinity is 12 Ru.
Turning to 5mer-700 (RAWER), the Binding affinity was 17 Ru.
In the case of 5mer-701 (RNHNK), the Binding affinity turned out to be 22 Ru.
On to 5mer-702 (KISHK), for which the Binding affinity was determined as 30 Ru.
With 5mer-703 (KPNWR), the Binding affinity worked out at 22 Ru.
Turning to 5mer-704 (RFMGK), the Binding affinity is recorded as 28 Ru.
For the substance 5mer-705 (RHAKK), the Binding affinity is 15 Ru.
In the case of 5mer-706 (RKMAK), the Binding affinity was determined as 27 Ru.
Turning to 5mer-707 (KIEAK), the Binding affinity is listed as 32 Ru.
Turning to 5mer-708 (KPKAR), the Binding affinity is reported as 20 Ru.
Turning to 5mer-709 (RHTIR), the Binding affinity came to 27 Ru.
Take 5mer-710 (KEKAR): the Binding affinity is reported as 21 Ru.
With 5mer-711 (KECIK) the figure was 32 Ru.
